Test results as given in publication PMC6602974 (Nature Communications, 2019).

B1: DH753 monoclonal antibody (IgG1) (antibody, V domains shown)
VH: EVHLVESGGGLVQPGGSLRLSCEVSGLTFSNSWMSWVRQAPGKGLEWVGFIKTKADGGTAAYAESVKGRFTISRDDSKNTVFLQMKSLKTEDTAVYYCQGAVVISHEYIEIWGQGALVTVSS
VL: QSVLTQPPSASEAARKSVTISCSGGSSNIGDDSVSWYQQVPGTAPKLLIYYNDRRASGVSDRFSGSKSGTSASLAINGLQSEDEADYYCAAWDDSLSAYIFGSGTRLTVL
notes: copies: 2 + 2
B2: DH727.2 monoclonal antibody (IgG1) (antibody, V domains shown)
VH: QVQLVQSGAEVKKPGASVKLSCKASGNTFSIYGISWVRQAPGQGLEWMGGIIPPAGLTNYVQRFQGRVTITADTSTTTVYMELSSLTSEDTAVYYCAIRIGRGFDYWGQGVLVTVSS
VL: DIVMTQSPLSLPVTPGETASISCRSSQSLLDSEDGNTYLEWYLQKPGQSPQALIYEASNRASGVPDRFSGSGSDTDFTLKISRVEAEDVGIYYCMQTIEYPFTFGPGTKVDIK
notes: copies: 2 + 2

Biological target: CH505 transmitted founder gp120 (HIV-1 CH505 transmitted/founder, UniProt M4M3Q1, strain)
Test: SPR
Conditions: both partners purified

Row | Binder | binding result
1 | B1 | binds
2 | B2 | binds
